In patent US20150368316A1 (ALBERT EINSTEIN COLLEGE OF MEDICINE OF YESHIVA UNIVERSITY, published 2015) one finds Kd data, which are given here for one substance.

The target of assay [1] is human PD-L1 on mature human monocyte-derived dendritic cells (human) (UniProt Q9NZQ7). In words: flow cytometry, Kd estimated from MFI of Ig fusion protein binding to TNF-α-matured human monocyte-derived dendritic cells; the cells express both PD-L1 and PD-L2, so the value is an apparent avidity not resolved between the two ligands [panel B, table].
human PD-L1 on mature human monocyte-derived dendritic cells (human), sequence (Q9NZQ7 19-290): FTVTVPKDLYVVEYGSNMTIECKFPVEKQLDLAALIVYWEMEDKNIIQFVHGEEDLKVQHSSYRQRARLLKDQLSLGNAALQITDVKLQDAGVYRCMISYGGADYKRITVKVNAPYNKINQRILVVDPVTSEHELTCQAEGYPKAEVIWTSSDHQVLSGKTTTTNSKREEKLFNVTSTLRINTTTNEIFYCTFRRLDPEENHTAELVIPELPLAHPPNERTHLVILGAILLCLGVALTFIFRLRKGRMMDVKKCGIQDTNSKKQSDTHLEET
The target of assay [2] is human PD-L2 on mature human monocyte-derived dendritic cells (human) (UniProt Q9BQ51). Described as above.
human PD-L2 on mature human monocyte-derived dendritic cells (human), sequence (Q9BQ51 20-273): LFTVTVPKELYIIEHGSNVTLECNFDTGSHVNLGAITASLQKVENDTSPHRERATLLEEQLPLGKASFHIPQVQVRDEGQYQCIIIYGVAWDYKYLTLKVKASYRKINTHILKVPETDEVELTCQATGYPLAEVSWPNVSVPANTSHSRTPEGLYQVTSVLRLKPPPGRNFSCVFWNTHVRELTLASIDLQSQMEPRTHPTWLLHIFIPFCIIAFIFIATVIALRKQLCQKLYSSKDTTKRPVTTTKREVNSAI

Turning to PD-1 Ig (Fc fusion), the Kd in assay [1] and in assay [2] was 0.325 µM in each case.
